Stoichiometry N data for two molecules are collected here from PMC12521514.

In test [1] the target is ClpP-N12A (Staphylococcus aureus) (UniProt Q2G036). Kind of test: negative stain EM.
Test [2] addresses T1, Staphylococcus aureus ClpP wild type (Staphylococcus aureus), Q2G036.
T1 chain: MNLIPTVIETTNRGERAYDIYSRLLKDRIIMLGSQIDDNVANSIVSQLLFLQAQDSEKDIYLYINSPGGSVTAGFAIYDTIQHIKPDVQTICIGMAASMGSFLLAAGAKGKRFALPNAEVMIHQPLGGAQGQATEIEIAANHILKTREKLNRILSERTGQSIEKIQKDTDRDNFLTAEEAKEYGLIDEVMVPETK
To be noted: remark: other sources report otherwise.

As to “ClpP-N12A (from UniProt Q2G036) (enzyme)”, the stoichiometry N (usually a count of units in the complex or per binding partner) in test [1] was 14.

B1: Staphylococcus aureus ClpP wild type, Q2G036 1-195 (enzyme)
chain: T1 chain
In test [2], B1 had a stoichiometry N of 14.
